{"source": "paper PMC10269571", "biological_target": "3M2e-ferritin nanoparticle (three copies of M2e of H1N1 influenza virus fused to the N terminus of H. pylori ferritin) (influenza A virus H1N1 | Helicobacter pylori)", "assay": "native gel or EMSA"}
{"substance": "3M2e-ferritin nanoparticle (three copies of M2e of H1N1 influenza virus fused to the N terminus of H. pylori ferritin)", "values": [{"measurement": "stoichiometry N", "value": 24}]}
